Results published in the supplement of paper PMC5998384.

How the values were obtained:
[1] = tested on: HeLa Kyoto; test: solubility change mitosis vs G1/S (difference of NP-40 vs SDS log2 ratios) (log2 ratio difference); higher = more soluble in mitosis
[2] = tested on: HeLa Kyoto; test: solubility in G1/S (NP-40 vs SDS abundance) (log2 ratio); higher = more soluble; conditions: cell cycle stage: G1/S
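Throughout, for solubility change mitosis vs G1/S (difference of NP-40 vs SDS log2 ratios): synchronized HeLa Kyoto cells (double thymidine block for G1/S, nocodazole release for mitosis), protein amounts in NP-40 versus SDS lysates quantified by mass spectrometry, three biological replicates.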
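Throughout, for solubility in G1/S (NP-40 vs SDS abundance): HeLa Kyoto cells arrested at G1/S by double thymidine block, proteins quantified by TMT10plex mass spectrometry in mild NP-40 versus SDS extracts, three biological replicates.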

Sequence | solubility change mitosis (log2) [1] | solubility in G1/S (log2) [2]
MGCAPSIHISERLVAEDAPSPAAPPLSSGGPRLPQGQKTAALPRTRGAGLLESELRDGSGKKVAVADVQFGPMRFHQDQLQVLLVFTKEDNQCNGFCRACEKAGFKCTVTKEAQAVLACFLDKHHDIIIIDHRNPRQLDAEALCRSIRSSKLSENTVIVGVVRRVDREELSVMPFISAGFTRRYVENPNIMACYNELLQLEFGEVRSQLKLRACNSVFTALENSEDAIEITSEDRFIQYANPAFETTMGYQSGELIGKELGEVPINEKKADLLDTINSCIRIGKEWQGIYYAKKKNGDNIQQNVKIIPVIGQGGKIRHYVSIIRVCNGNNKAEKISECVQSDTHTDNQTGKHKDRRKGSLDVKAVASRATEVSSQRRHSSMARIHSMTIEAPITKVINIINAAQESSPMPVTEALDRVLEILRTTELYSPQFGAKDDDPHANDLVGGLMSDGLRRLSGNEYVLSTKNTQMVSSNIITPISLDDVPPRIARAMENEEYWDFDIFELEAATHNRPLIYLGLKMFARFGICEFLHCSESTLRSWLQIIEANYHSSNPYHNSTHSADVLHATAYFLSKERIKETLDPIDEVAALIAATIHDVDHPGRTNSFLCNAGSELAILYNDTAVLESHHAALAFQLTTGDDKCNIFKNMERNDYRTLRQGIIDMVLATEMTKHFEHVNKFVNSINKPLATLEENGETDKNQEVINTMLRTPENRTLIKRMLIKCADVSNPCRPLQYCIEWAARISEEYFSQTDEEKQQGLPVVMPVFDRNTCSIPKSQISFIDYFITDMFDAWDAFVDLPDLMQHLDNNFKYWKGLDEMKLRNLRPPPE [PDE8A] | -0.222 | -0.192
MGELCRRDSALTALDEETLWEMMESHRHRIVRCICPSRLTPYLRQAKVLCQLDEEEVLHSPRLTNSAMRAGHLLDLLKTRGKNGAIAFLESLKFHNPDVYTLVTGLQPDVDFSNFSGLMETSKLTECLAGAIGSLQEELNQEKGQKEVLLRRCQQLQEHLGLAETRAEGLHQLEADHSRMKREVSAHFHEVLRLKDEMLSLSLHYSNALQEKELAASRCRSLQEELYLLKQELQRANMVSSCELELQEQSLRTASDQESGDEELNRLKEENEKLRSLTFSLAEKDILEQSLDEARGSRQELVERIHSLRERAVAAERQREQYWEEKEQTLLQFQKSKMACQLYREKVNALQAQVCELQKERDQAYSARDSAQREISQSLVEKDSLRRQVFELTDQVCELRTQLRQLQAEPPGVLKQEARTREPCPREKQRLVRMHAICPRDDSDCSLVSSTESQLLSDLSATSSRELVDSFRSSSPAPPSQQSLYKRVAEDFGEEPWSFSSCLEIPEGDPGALPGAKAGDPHLDYELLDTADLPQLESSLQPVSPGRLDVSESGVLMRRRPARRILSQVTMLAFQGDALLEQISVIGGNLTGIFIHRVTPGSAADQMALRPGTQIVMVDYEASEPLFKAVLEDTTLEEAVGLLRRVDGFCCLSVKVNTDGYKRLLQDLEAKVATSGDSFYIRVNLAMEGRAKGELQVHCNEVLHVTDTMFQGCGCWHAHRVNSYTMKDTAAHGTIPNYSRAQQQLIALIQDMTQQCTVTRKPSSGGPQKLVRIVSMDKAKASPLRLSFDRGQLDPSRMEGSSTCFWAESCLTLVPYTLVRPHRPARPRPVLLVPRAVGKILSEKLCLLQGFKKCLAEYLSQEEYEAWSQRGDIIQEGEVSGGRCWVTRHAVESLMEKNTHALLDVQLDSVCTLHRMDIFPIVIHVSVNEKMAKKLKKGLQRLGTSEEQLLEAARQEEGDLDRAPCLYSSLAPDGWSDLDGLLSCVRQAIADEQKKVVWTEQSPR [CARD14] | 0.0129 | -0.00296
MGEPSREEYKIQSFDAETQQLLKTALKDPGAVDLEKVANVIVDHSLQDCVFSKEAGRMCYAIIQAESKQAGQSVFRRGLLNRLQQEYQAREQLRARSLQGWVCYVTFICNIFDYLRVNNMPMMALVNPVYDCLFRLAQPDSLSKEEEVDCLVLQLHRVGEQLEKMNGQRMDELFVLIRDGFLLPTGLSSLAQLLLLEIIEFRAAGWKTTPAAHKYYYSEVSD [MIF4GD] | 0.238 | 0.085
MGFWCRMSENQEQEEVITVRVQDPRVQNEGSWNSYVDYKIFLHTNSKAFTAKTSCVRRRYREFVWLRKQLQRNAGLVPVPELPGKSTFFGTSDEFIEKRRQGLQHFLEKVLQSVVLLSDSQLHLFLQSQLSVPEIEACVQGRSTMTVSDAILRYAMSNCGWAQEERQSSSHLAKGDQPKSCCFLPRSGRRSSPSPPPSEEKDHLEVWAPVVDSEVPSLESPTLPPLSSPLCCDFGRPKEGTSTLQSVRRAVGGDHAVPLDPGQLETVLEK [SNX11] | -0.17 | 0.38
MGIWQRLLLFGGVSLRAGGGATAPLGGSRAMVCGRQLSGAGSETLKQRRTQIMSRGLPKQKPIEGVKQVIVVASGKGGVGKSTTAVNLALALAANDSSKAIGLLDVDVYGPSVPKMMNLKGNPELSQSNLMRPLLNYGIACMSMGFLVEESEPVVWRGLMVMSAIEKLLRQVDWGQLDYLVVDMPPGTGDVQLSVSQNIPITGAVIVSTPQDIALMDAHKGAEMFRRVHVPVLGLVQNMSVFQCPKCKHKTHIFGADGARKLAQTLGLEVLGDIPLHLNIREASDTGQPIVFSQPESDEAKAYLRIAVEVVRRLPSPSE [NUBPL] | 0.138 | 0.45
MGKAKVPASKRAPSSPVAKPGPVKTLTRKKNKKKKRFWKSKAREVSKKPASGPGAVVRPPKAPEDFSQNWKALQEWLLKQKSQAPEKPLVISQMGSKKKPKIIQQNKKETSPQVKGEEMPAGKDQEASRGSVPSGSKMDRRAPVPRTKASGTEHNKKGTKERTNGDIVPERGDIEHKKRKAKEAAPAPPTEEDIWFDDVDPADIEAAIGPEAAKIARKQLGQSEGSVSLSLVKEQAFGGLTRALALDCEMVGVGPKGEESMAARVSIVNQYGKCVYDKYVKPTEPVTDYRTAVSGIRPENLKQGEELEVVQKEVAEMLKGRILVGHALHNDLKVLFLDHPKKKIRDTQKYKPFKSQVKSGRPSLRLLSEKILGLQVQQAEHCSIQDAQAAMRLYVMVKKEWESMARDRRPLLTAPDHCSDDA [REXO4] | 0.875 | -0.936
MGKSCKVVVCGQASVGKTSILEQLLYGNHVVGSEMIETQEDIYVGSIETDRGVREQVRFYDTRGLRDGAELPRHCFSCTDGYVLVYSTDSRESFQRVELLKKEIDKSKDKKEVTIVVLGNKCDLQEQRRVDPDVAQHWAKSEKVKLWEVSVADRRSLLEPFVYLASKMTQPQSKSAFPLSRKNKGSGSLDG [NKIRAS2] | -0.0114 | -0.133
MGLSTVPDLLLPLVLLELLVGIYPSGVIGLVPHLGDREKRDSVCPQGKYIHPQNNSICCTKCHKGTYLYNDCPGPGQDTDCRECESGSFTASENHLRHCLSCSKCRKEMGQVEISSCTVDRDTVCGCRKNQYRHYWSENLFQCFNCSLCLNGTVHLSCQEKQNTVCTCHAGFFLRENECVSCSNCKKSLECTKLCLPQIENVKGTEDSGTTVLLPLVIFFGLCLLSLLFIGLMYRYQRWKSKLYSIVCGKSTPEKEGELEGTTTKPLAPNPSFSPTPGFTPTLGFSPVPSSTFTSSSTYTPGDCPNFAAPRREVAPPYQGADPILATALASDPIPNPLQKWEDSAHKPQSLDTDDPATLYAVVENVPPLRWKEFVRRLGLSDHEIDRLELQNGRCLREAQYSMLATWRRRTPRREATLELLGRVLRDMDLLGCLEDIEEALCGPAALPPAPSLLR [TNFRSF1A] | -0.132 | -0.165
MGNTTTKFRKALINGDENLACQIYENNPQLKESLDPNTSYGEPYQHNTPLHYAARHGMNKILGTFLGRDGNPNKRNVHNETSMHLLCMGPQIMISEGALHPRLARPTEDDFRRADCLQMILKWKGAKLDQGEYERAAIDAVDNKKNTPLHYAAASGMKACVELLVKHGGDLFAENENKDTPCDCAEKQHHKDLALNLESQMVFSRDPEAEEIEAEYAALDKREPYEGLRPQDLRRLKDMLIVETADMLQAPLFTAEALLRAHDWDREKLLEAWMSNPENCCQRSGVQMPTPPPSGYNAWDTLPSPRTPRTTRSSVTSPDEISLSPGDLDTSLCDICMCSISVFEDPVDMPCGHDFCRGCWESFLNLKIQEGEAHNIFCPAYDCFQLVPVDIIESVVSKEMDKRYLQFDIKAFVENNPAIKWCPTPGCDRAVRLTKQGSNTSGSDTLSFPLLRAPAVDCGKGHLFCWECLGEAHEPCDCQTWKNWLQKITEMKPEELVGVSEAYEDAANCLWLLTNSKPCANCKSPIQKNEGCNHMQCAKCKYDFCWICLEEWKKHSSSTGGYYRCTRYEVIQHVEEQSKEMTVEAEKKHKRFQELDRFMHYYTRFKNHEHSYQLEQRLLKTAKEKMEQLSRALKETEGGCPDTTFIEDAVHVLLKTRRILKCSYPYGFFLEPKSTKKEIFELMQTDLEMVTEDLAQKVNRPYLRTPRHKIIKAACLVQQKRQEFLASVARGVAPADSPEAPRRSFAGGTWDWEYLGFASPEEYAEFQYRRRHRQRRRGDVHSLLSNPPDPDEPSESTLDIPEGGSSSRRPGTSVVSSASMSVLHSSSLRDYTPASRSENQDSLQALSSLDEDDPNILLAIQLSLQESGLALDEETRDFLSNEASLGAIGTSLPSRLDSVPRNTDSPRAALSSSELLELGDSLMRLGAENDPFSTDTLSSHPLSEARSDFCPSSSDPDSAGQDPNINDNLLGNIMAWFHDMNPQSIALIPPATTEISADSQLPCIKDGSEGVKDVELVLPEDSMFEDASVSEGRGTQIEENPLEENILAGEAASQAGDSGNEAANRGDGSDVSSQTPQTSSDWLEQVHLV [ANKIB1] | -0.221 | 0.00548
MGPGGPLLSPSRGFLLCKTGWHSNRLLGDCGPHTPVSTALSFIAVGMAAPSMKERQVCWGARDEYWKCLDENLEDASQCKKLRSSFESSCPQQWIKYFDKRRDYLKFKEKFEAGQFEPSETTAKS [COA6] | 0.327 | -0.656
MGRAVKVLQLFKTLHRTRQQVFKNDARALEAARIKINEEFKNNKSETSSKKIEELMKIGSDVELLLRTSVIQGIHTDHNTLKLVPRKDLLVENVPYCDAPTQKQ [LYRM7] | 0.302 | 0.581
MGRKKIQIQRITDERNRQVTFTKRKFGLMKKAYELSVLCDCEIALIIFNHSNKLFQYASTDMDKVLLKYTEYNEPHESRTNADIIETLRKKGFNGCDSPEPDGEDSLEQSPLLEDKYRRASEELDGLFRRYGSTVPAPNFAMPVTVPVSNQSSLQFSNPSGSLVTPSLVTSSLTDPRLLSPQQPALQRNSVSPGLPQRPASAGAMLGGDLNSANGACPSPVGNGYVSARASPGLLPVANGNSLNKVIPAKSPPPPTHSTQLGAPSRKPDLRVITSQAGKGLMHHLTEDHLDLNNAQRLGVSQSTHSLTTPVVSVATPSLLSQGLPFSSMPTAYNTDYQLTSAELSSLPAFSSPGGLSLGNVTAWQQPQQPQQPQQPQPPQQQPPQPQQPQPQQPQQPQQPPQQQSHLVPVSLSNLIPGSPLPHVGAALTVTTHPHISIKSEPVSPSRERSPAPPPPAVFPAARPEPGDGLSSPAGGSYETGDRDDGRGDFGPTLGLLRPAPEPEAEGSAVKRMRLDTWTLK [MEF2D] | 0.0539 | 0.219
MGSAKSVPVTPARPPPHNKHLARVADPRSPSAGILRTPIQVESSPQPGLPAGEQLEGLKHAQDSDPRSPTLGIARTPMKTSSGDPPSPLVKQLSEVFETEDSKSNLPPEPVLPPEAPLSSELDLPLGTQLSVEEQMPPWNQTEFPSKQVFSKEEARQPTETPVASQSSDKPSRDPETPRSSGSMRNRWKPNSSKVLGRSPLTILQDDNSPGTLTLRQGKRPSPLSENVSELKEGAILGTGRLLKTGGRAWEQGQDHDKENQHFPLVES [CDCA3] | 0.957 | -0.032
